In patent US20250171556A1 (VIRTUOSO BINCO, published 2025):
Where two headings read alike, the source gives them in different places.

Key:
recombinant human EpCAM [1] = target: T1, recombinant human EpCAM (human, UniProt P16422 24-265); assay: ELISA, plate coated with recombinant human EpCAM, detection with peroxidase anti-human IgG (Fab specific), OD450
T1 construct: Recombinant protein for ELISA coating; also called human EpCAM recombinant protein
T1 sequence (looked up): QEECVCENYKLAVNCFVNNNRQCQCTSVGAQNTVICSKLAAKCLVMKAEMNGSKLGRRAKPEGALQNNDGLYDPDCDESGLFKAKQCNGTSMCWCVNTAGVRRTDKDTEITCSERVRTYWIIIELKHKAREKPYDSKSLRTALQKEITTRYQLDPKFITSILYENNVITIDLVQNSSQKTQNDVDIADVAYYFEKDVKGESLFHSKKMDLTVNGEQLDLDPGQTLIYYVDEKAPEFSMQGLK
Procedure: (§1) A 96-well plate was coated overnight at 4° C. with 1 μg/ml recombinant human CD47 or human EpCAM. After washing 3 times, the plate was blocked with 300 μl 1% BSA in PBST at 37° C. for 1 hour. Serially diluted antibodies were added and incubated at 37° C. for 1 hour. The plate was then washed 4 times with PBST and incubated with 1:5000 diluted peroxidase labeled goat anti-human IgG (Fab specific) secondary antibody (Sigma, Cat #A0293) for 1 hour at 37° C. The plate was washed again 4 times with PBST, incubated with 3,3′,5,5′-tetramethylbenzidine (TMB) substrate for 15 min at room temperature, terminated with 1N HCl, and then read at 450 nm.
(§2) ELISA assay was performed as described in EXAMPLE 3.

recombinant human CD47 [2] = target: T2, recombinant human CD47 (human, UniProt Q08722 19-139, limits assumed); assay: ELISA, plate coated with recombinant human CD47, detection with peroxidase anti-human IgG (Fab specific), OD450
T2 construct: Recombinant protein for ELISA coating; also called human CD47 recombinant protein
Procedure: as §1, §2

CD47 on human cells [3] = target: T3, CD47 on human cells (human, UniProt Q08722 19-323); assay: flow cytometry, blocking of SIRPα-mIgG2a fusion protein (0.2 µg/mL) binding to CD47 on Raji cells (EpCAM-/CD47+), inhibition (%)
T3 construct: whole, on cells; Endogenous CD47 on cells; also called CD47 on Raji cells; CD47 on HCT-15 cells
Procedure: (§3) Tumor cells were harvested, centrifuged, and then resuspended in FACS buffer (PBS plus 2% FBS) at a concentration of 2×10⁶ cells/mL. 100 μL of the cell suspension was dispensed into each well of a 96-well plate. The plate was centrifuged for 5 min and 300×g, and the supernatants were discarded. […] Then, the plates were washed twice with FACS buffer and incubated for 1 hour at 4° C. in the dark with 100 μL of Alexa Fluor 488 donkey anti-Mouse IgG (H+L) secondary antibody (Invitrogen, Cat #A21202, 1:1000). After washing twice with FACS buffer, the plates were resuspended with 300 μL FACS buffer and analyzed by flow cytometry.

recombinant human CD47 [4] = target: T2, recombinant human CD47; assay: ELISA, plate coated with recombinant human CD47, detection with peroxidase anti-human IgG (Fab specific), OD450; remark: listed apart in the source
Procedure: as §1, with “μg/mL” for “μg/ml”, “EGFR.” for “EpCAM.”, “μL” for “μl”

CD47 on human cells [5] = target: T3, CD47 on human cells; assay: flow cytometry competition with SIRPα-mIgG2a; IC50 on HCT-15 cells against IC50 on Raji cells
Procedure: as §3

CD47 on human cells [6] = target: T3, CD47 on human cells; assay: flow cytometry on a mixture of HCT-15 cells and RBCs; EC50 on HCT-15 cells against EC50 on RBCs
Procedure: (§4) Binding of antibodies on mixed tumor cells and RBCs was performed by FACS. In brief, antibodies were incubated with a mixture of HCT-15 tumor cells and RBCs (in 20-fold excess of tumor) for 1 h at 4° C. The binding of antibodies on HCT-15 cells and RBCs were identified by using different FACS markers and detected by flow cytometry.

recombinant human CD47 [7] = target: T2, recombinant human CD47; assay: ELISA, plate coated with recombinant human CD47, detection with peroxidase anti-human IgG (Fab specific), OD450; remark: listed apart in the source
Procedure: as §1

CD47 on human cells [8] = target: T3, CD47 on human cells; assay: flow cytometry competition with SIRPα-mIgG2a (0.2 µg/mL) on EpCAM-negative Raji cells; EpCAM negative Raji cells; SIRPα-mIgG2a 0.2 µg/mL
Procedure: as §3

CD47 on human cells [9] = target: T3, CD47 on human cells; assay: flow cytometry competition with SIRPα-mIgG2a (1 µg/mL) on EpCAM-high HCT-15 cells; EpCAM high HCT-15 cells; SIRPα-mIgG2a 1 µg/mL
Procedure: as §3

CD47 on human cells [10] = target: T3, CD47 on human cells; assay: flow cytometry on a mixture of HCT-15 tumor cells and a 20-fold excess of RBCs, signal on the HCT-15 cells (EpCAM+/CD47+, so both arms of the bispecific can take part), % of selective binding
Procedure: as §4

recombinant human EpCAM [11] = target: T1, recombinant human EpCAM; assay: ELISA, plate coated with recombinant human EpCAM, detection with peroxidase anti-human IgG (Fab specific), OD450; remark: listed apart in the source
Procedure: as §1

CD47 on human cells [12] = target: T3, CD47 on human cells; assay: flow cytometry, blocking of SIRPα-mIgG2a fusion protein (1 µg/mL) binding to CD47 on HCT-15 cells (EpCAM+++/CD47+), inhibition (%)
Procedure: as §3

B1: CD47×EpCAM_v9 (bispecific antibody, human IgG1, kappa)
heavy: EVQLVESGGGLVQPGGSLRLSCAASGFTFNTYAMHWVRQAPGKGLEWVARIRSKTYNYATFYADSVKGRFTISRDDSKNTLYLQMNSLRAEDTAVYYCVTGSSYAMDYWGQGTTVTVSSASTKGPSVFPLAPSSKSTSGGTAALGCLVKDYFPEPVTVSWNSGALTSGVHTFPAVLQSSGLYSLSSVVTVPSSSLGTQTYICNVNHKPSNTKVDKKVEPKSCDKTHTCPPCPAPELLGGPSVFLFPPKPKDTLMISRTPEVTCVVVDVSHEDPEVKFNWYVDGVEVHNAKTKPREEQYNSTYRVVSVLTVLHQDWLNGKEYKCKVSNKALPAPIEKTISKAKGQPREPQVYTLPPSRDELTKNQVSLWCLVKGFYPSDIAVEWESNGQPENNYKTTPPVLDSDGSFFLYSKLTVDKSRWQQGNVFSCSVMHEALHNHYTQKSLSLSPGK
light: DIQLTQSPSSLSASVGDRVTFTCRASQSIGTSLHWYQQKPGKAPKLLIKYASESISGIPSRFSGSGSGTDFTLTISSVQPEDFATYYCQQSNSWPYTFGQGTKLEIKRTVAAPSVFIFPPSDEQLKSGTASVVCLLNNFYPREAKVQWKVDNALQSGNSQESVTEQDSKDSTYSLSSTLTLSKADYEKHKVYACEVTHQGLSSPVTKSFNRGEC
scFv: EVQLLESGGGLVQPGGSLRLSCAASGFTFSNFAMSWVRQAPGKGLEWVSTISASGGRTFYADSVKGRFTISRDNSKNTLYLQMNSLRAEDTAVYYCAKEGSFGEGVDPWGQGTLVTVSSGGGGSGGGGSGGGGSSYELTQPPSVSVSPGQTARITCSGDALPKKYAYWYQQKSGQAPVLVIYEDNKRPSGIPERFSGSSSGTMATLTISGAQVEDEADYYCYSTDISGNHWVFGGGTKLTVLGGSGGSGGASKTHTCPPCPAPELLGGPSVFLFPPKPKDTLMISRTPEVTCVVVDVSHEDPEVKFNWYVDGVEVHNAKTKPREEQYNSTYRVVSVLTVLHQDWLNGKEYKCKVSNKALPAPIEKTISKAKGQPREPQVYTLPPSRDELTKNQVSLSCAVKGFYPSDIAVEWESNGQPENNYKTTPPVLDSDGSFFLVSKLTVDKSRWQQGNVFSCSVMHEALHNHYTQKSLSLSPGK
notes: Three-chain knob-into-hole bispecific: anti-EpCAM Fab arm and anti-CD47 scFv arm
EC50 (read off the curve) (recombinant human EpCAM [1]): ~0.1 nM
EC50 (read off the curve) (recombinant human CD47 [2]): ~7 nM

B2: VIR47.V8 (antibody, human IgG1, lambda, V domains shown)
VH: EVQLLESGGGLVQPGGSLRLSCAASGFTFSNFAMSWVRQAPGKGLEWVSTISASGGRTFYADSVKGRFTISRDNSKNTLYLQMNSLRAEDTAVYYCAKEGSFGEGVDPWGQGTLVTVSS
VL: SYELTQPPSVSVSPGQTARITCSGDALPKKYAYWYQQKSGQAPVLVIYEDNKRPSGIPERFSGSSSGTMATLTISGAQVEDEADYYCYSTDISGNHWVFGGGTKLTVLG
notes: Bivalent monospecific parental anti-CD47 antibody; also called parental CD47 antibody VIR47.V8; anti-CD47 bivalent antibody (VIR47.V8)
IC50 (read off the curve) (CD47 on human cells [3]): ~8 nM
EC50 (read off the curve) (recombinant human CD47 [4]): ~0.05 nM

B3: CD47×EpCAM_v5 (bispecific antibody, human IgG1, lambda)
heavy: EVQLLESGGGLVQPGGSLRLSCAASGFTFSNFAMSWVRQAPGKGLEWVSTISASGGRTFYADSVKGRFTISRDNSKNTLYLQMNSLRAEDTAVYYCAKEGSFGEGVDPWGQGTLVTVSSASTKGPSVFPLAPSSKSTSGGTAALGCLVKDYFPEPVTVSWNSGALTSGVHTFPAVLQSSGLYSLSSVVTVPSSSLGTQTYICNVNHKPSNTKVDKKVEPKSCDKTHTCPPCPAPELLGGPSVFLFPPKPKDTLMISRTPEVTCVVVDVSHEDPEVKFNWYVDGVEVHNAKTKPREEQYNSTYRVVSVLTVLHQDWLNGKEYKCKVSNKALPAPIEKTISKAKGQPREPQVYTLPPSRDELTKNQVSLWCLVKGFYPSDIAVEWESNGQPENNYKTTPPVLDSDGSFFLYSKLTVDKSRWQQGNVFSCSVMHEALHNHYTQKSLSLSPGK
light: SYELTQPPSVSVSPGQTARITCSGDALPKKYAYWYQQKSGQAPVLVIYEDNKRPSGIPERFSGSSSGTMATLTISGAQVEDEADYYCYSTDISGNHWVFGGGTKLTVLGQPKAAPSVTLFPPSSEELQANKATLVCLISDFYPGAVTVAWKADSSPVKAGVETTTPSKQSNNKYAASSYLSLTPEQWKSHRSYSCQVTHEGSTVEKTVAPTECS
scFv: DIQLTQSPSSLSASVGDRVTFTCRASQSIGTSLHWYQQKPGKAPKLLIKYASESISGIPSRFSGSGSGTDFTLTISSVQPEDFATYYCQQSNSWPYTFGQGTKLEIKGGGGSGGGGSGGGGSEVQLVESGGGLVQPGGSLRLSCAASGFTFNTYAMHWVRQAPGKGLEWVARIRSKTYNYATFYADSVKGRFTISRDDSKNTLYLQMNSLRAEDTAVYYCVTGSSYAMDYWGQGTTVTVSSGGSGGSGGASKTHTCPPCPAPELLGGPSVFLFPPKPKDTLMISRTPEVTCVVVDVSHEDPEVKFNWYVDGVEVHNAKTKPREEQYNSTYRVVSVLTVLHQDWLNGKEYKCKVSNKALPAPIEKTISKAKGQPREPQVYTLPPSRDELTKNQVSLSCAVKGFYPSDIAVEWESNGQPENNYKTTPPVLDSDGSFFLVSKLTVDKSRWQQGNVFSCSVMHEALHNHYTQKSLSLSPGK
notes: Three-chain knob-into-hole bispecific: anti-CD47 Fab arm (VIR47.V8) and anti-EpCAM scFv arm (Mab002-11), human IgG1 backbone; also called anti-CD47×EpCAM bispecific antibody
fold difference of IC50 (HCT-15 cells against Raji cells) (CD47 on human cells [5]): ~500 fold
fold difference of binding EC50 (tumor cells against RBCs) (CD47 on human cells [6]): > 200 fold
EC50 (read off the curve) (recombinant human CD47 [7]): ~1 nM
IC50 (CD47 on human cells [8]): > 100 nM
IC50 (CD47 on human cells [9]): < 1 nM
EC50 (read off the curve) (CD47 on human cells [10]): ~0.09 nM
EC50 (read off the curve) (recombinant human EpCAM [11]): ~0.8 nM
IC50 (read off the curve) (CD47 on human cells [12]): ~0.3 nM

B4: CD47×EpCAM_v10 (bispecific antibody, human IgG1, lambda)
heavy: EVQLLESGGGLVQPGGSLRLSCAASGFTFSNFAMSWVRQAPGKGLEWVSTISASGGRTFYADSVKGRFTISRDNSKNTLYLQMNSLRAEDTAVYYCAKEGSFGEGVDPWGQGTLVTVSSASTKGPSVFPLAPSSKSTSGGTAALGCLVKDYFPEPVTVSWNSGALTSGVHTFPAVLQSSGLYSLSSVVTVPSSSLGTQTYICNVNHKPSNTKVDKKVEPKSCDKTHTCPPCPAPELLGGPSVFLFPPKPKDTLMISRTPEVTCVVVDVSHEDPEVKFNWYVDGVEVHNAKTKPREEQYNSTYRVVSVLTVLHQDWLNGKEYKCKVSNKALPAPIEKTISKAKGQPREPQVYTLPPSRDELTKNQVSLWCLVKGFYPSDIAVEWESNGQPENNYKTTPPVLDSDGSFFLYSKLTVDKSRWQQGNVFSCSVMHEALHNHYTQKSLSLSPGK
light: SYELTQPPSVSVSPGQTARITCSGDALPKKYAYWYQQKSGQAPVLVIYEDNKRPSGIPERFSGSSSGTMATLTISGAQVEDEADYYCYSTDISGNHWVFGGGTKLTVLGQPKAAPSVTLFPPSSEELQANKATLVCLISDFYPGAVTVAWKADSSPVKAGVETTTPSKQSNNKYAASSYLSLTPEQWKSHRSYSCQVTHEGSTVEKTVAPTECS
scFv: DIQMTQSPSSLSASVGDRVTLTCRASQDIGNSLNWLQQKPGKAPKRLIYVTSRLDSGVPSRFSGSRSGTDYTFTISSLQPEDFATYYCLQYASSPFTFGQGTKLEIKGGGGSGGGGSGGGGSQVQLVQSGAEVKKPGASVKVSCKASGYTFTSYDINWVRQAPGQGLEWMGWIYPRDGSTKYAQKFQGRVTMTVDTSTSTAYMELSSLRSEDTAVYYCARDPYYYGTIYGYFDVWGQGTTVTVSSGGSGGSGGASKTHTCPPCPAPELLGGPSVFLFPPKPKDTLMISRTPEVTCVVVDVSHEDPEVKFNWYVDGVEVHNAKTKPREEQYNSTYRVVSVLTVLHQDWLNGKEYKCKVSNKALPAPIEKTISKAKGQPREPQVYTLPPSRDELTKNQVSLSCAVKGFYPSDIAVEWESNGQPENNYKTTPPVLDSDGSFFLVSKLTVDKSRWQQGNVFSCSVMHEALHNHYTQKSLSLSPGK
notes: Three-chain knob-into-hole bispecific: anti-CD47 Fab arm and anti-EpCAM scFv arm (Mab001-12)
EC50 (read off the curve) (recombinant human EpCAM [1]): ~9 nM
EC50 (read off the curve) (recombinant human CD47 [2]): ~1 nM

B5: CD47×EpCAM_v11 (bispecific antibody, human IgG1, lambda)
heavy: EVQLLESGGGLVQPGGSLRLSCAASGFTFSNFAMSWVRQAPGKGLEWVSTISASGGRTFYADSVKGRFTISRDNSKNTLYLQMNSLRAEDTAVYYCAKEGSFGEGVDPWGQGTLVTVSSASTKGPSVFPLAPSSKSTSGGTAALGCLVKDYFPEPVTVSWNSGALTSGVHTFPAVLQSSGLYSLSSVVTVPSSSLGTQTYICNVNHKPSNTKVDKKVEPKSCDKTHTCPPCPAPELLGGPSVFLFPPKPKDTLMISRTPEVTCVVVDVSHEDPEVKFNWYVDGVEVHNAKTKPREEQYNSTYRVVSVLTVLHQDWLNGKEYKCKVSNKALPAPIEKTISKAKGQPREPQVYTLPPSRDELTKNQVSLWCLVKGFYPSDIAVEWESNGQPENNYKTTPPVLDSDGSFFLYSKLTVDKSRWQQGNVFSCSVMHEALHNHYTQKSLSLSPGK
light: SYELTQPPSVSVSPGQTARITCSGDALPKKYAYWYQQKSGQAPVLVIYEDNKRPSGIPERFSGSSSGTMATLTISGAQVEDEADYYCYSTDISGNHWVFGGGTKLTVLGQPKAAPSVTLFPPSSEELQANKATLVCLISDFYPGAVTVAWKADSSPVKAGVETTTPSKQSNNKYAASSYLSLTPEQWKSHRSYSCQVTHEGSTVEKTVAPTECS
scFv: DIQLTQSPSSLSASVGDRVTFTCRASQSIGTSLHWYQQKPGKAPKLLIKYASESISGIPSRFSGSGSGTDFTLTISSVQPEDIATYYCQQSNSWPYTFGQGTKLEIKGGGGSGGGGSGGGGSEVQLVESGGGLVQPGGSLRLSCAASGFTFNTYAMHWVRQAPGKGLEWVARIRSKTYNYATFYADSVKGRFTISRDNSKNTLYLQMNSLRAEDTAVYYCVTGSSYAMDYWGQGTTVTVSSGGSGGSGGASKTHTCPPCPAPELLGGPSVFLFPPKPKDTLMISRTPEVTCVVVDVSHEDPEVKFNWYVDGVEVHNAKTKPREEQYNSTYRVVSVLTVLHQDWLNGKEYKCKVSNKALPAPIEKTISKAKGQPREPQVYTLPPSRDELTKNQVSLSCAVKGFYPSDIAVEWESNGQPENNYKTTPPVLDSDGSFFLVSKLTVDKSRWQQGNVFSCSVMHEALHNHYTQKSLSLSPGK
notes: Three-chain knob-into-hole bispecific: anti-CD47 Fab arm and anti-EpCAM scFv arm (Mab002-8)
EC50 (read off the curve) (recombinant human EpCAM [1]): ~0.1 nM
EC50 (read off the curve) (recombinant human CD47 [2]): ~0.4 nM
